Measurements as given in patent US20050136044A1, “Butyrylcholinesterase variants that alter the activity of chemotherapeutic agents” (priority 2003, published 2005).

B1: wild-type butyrylcholinesterase (protein, UniProt P06276 29-602, looked up)
Cholinesterase: EDDIIIATKNGKVRGMNLTVFGGTVTAFLGIPYAQPPLGRLRFKKPQSLTKWSDIWNATKYANSCCQNIDQSFPGFHGSEMWNPNTDLSEDCLYLNVWIPAPKPKNATVLIWIYGGGFQTGTSSLHVYDGKFLARVERVIVVSMNYRVGALGFLALPGNPEAPGNMGLFDQQLALQWVQKNIAAFGGNPKSVTLFGESAGAASVSLHLLSPGSHSLFTRAILQSGSFNAPWAVTSLYEARNRTLNLAKLTGCSRENETEIIKCLRNKDPQEILLNEAFVVPYGTPLSVNFGPTVDGDFLTDMPDILLELGQFKKTQILVGVNKDEGTAFLVYGAPGFSKDNNSIITRKEFQEGLKIFFPGVSEFGKESILFHYTDWVDDQRPENYREALGDVVGDYNFICPALEFTKKFSEWGNNAFFYYFEHRSSKLPWPEWMGVMHGYEIEFVFGLPLERRDNYTKAEEILSRSIVKRWANFAKYGNPNETQNNSTSWPVFKSTEQKYLTLNTESTRIMTKLRAQQCRFWTSFFPKVLEMTGNIDEAEWEWKAGFHRWNNYMMDWKNQFNDYTSKKESCVGL

Tests used:
[1] = in vitro; Pavillard et al. 2002; cited from earlier work
[2] = BChE-mediated CPT-11 hydrolysis, SN38 quantitated by reverse-phase HPLC with fluorescence detection; Km by Hofstee plot; assay type: biochemical; conditions: 37° C., 24 hours, CPT-11 1-80 μM, Hofstee plot
Protocol: BChE plasmid variants were expressed transiently in the human embryonic kidney cell line 293T and assayed for activity at 72 hours post-transfection. Primary screening of variants was performed by indirect measurement of enzymatic activation of CPT-11 (FIG. 2) in SW48 colon carcinoma cell cytotoxicity assays. […] Functional hits identified in these assays were characterized by sequence analysis of the corresponding DNA from the original preps. […] Enzyme was incubated at 37° C. for 24 hours with CPT-11 over a range of concentrations from 1-80 μM. […] Velocity (v) is in light absorbance units at 540 nm. Substrate concentration [s] is μM CPT-11.
Samples were acidified and resolved by reverse-phase HPLC on a NovaPak C18 column to separate SN38 from unactivated CPT-11. SN38 peak area under the curve (AUC) was used to compare CPT-11 activation by the wild-type enzyme to the optimized BChE.4-1 variant.

[3] = o-nitrophenyl acetate (o-NPA) hydrolysis assay of antibody-captured butyrylcholinesterase variants (carboxylesterase activity); assay type: biochemical; conditions: antibody capture/normalization, absorbance 405 nm
Protocol: A modification of this assay that measures o-NPA activity of butyrylcholinesterase variants normalized by capturing with an anti-butyrylcholinesterase antibody was performed as described below.
Protocol to Determine Carboxylesterase activity of Captured Butyrylcholinesterase by o-Nitrophenyl acetate: • 1) Coat 96-well Immulon 2 plates with rabbit anti-human butyrylcholinesterase (Dako #A0032) at 10 mg/ml in PBS (100 ml/well) overnight at 4° C. • 2) Remove coating solution and block plate with 3% BSA in PBS (250 ml/well) for 2 hours at room temperature. • 3) Add 200 ml butyrylcholinesterase variant conditioned media and incubate at RT for 2 hrs. • 4) Wash plate 3 times with 250 ml/well PBS. • 5) Add 85 ml/well 0.1 M potassium phosphate pH 7.0 • 6) Add 13.6 mg o-NPA to 100 ml acetonitrile, mix to dissolve. Add 100 ml of this stock to 6.3 mls water and mix well. • 7) Wash plate 3 times with PBS. • 8) Add 15 ml of diluted o-NPA substrate. • 9) Read absorbance at 405 nm.
Conditioned media from butyrylcholinesterase variants that were transiently expressed in 293T cells was tested using the above described anti-butyrylcholinesterase antibody capture/normalization assay for carboxylesterase activity. […] The first variant shown in FIG. 1 is F227A (see left-most bar). The level of activity of the other variants can be compared to the level of activity of F227A. […]

[4] = CPT-11 conversion to SN-38, fluorescent HPLC detection, conditioned media of transiently expressed BChE variants; assay type: biochemical; conditions: conditioned media
Protocol: Butyrylcholinesterase variants were assayed for CPT-11 conversion activity using fluorescent High Performance Liquid Chromotography (HPLC) detection of SN-38 formation as described in Dodds and Rivory, Mol. Pharmacol. 56: 1346-1353 (1999), which is incorporated herein by reference. Briefly, conditioned media from transiently expressed BChE variants were exposed to 20 mM CPT-11 for 72 hours at 37° C. and analyzed by HPLC for SN-38 formation (peak at about 4 minutes column retention time).

[5] = test system: SW48 colon carcinoma cells; test: MTT cytotoxicity assay of CPT-11 activated by BChE variants; conditions: CPT-11 at 4 mM incubated 72 hours with enzyme, cells exposed at 0.5 mM for 72 hours, versus mock
Protocol: Clinically relevant concentrations of CPT-11 (0.5-10 mM) were exposed to BChE variants for 24-72 hours at 37° C. Briefly, CPT-11 at 4 mM was incubated for 72 hours with expressed wild-type BChE, the 6-6 variant, or F227A/L286Q variant. SW48 colon carcinoma cells were exposed to the activated CPT-11 at a concentration of 0.5 mM for 72 hours and cell viability measured by the MTT method. The MTT (3-(4,5-dimethylthiazolyl-2)-2,5-diphenyltetrazolium bromide) assay is commercially available and can be used to measure cell viability based on the ability of a cell to reduce a redox sensitive dye. Note the 6-6 variant is a quadruple mutant referenced as A328W/Y332M/S287G/F227A (SEQ ID NO: 16) in the nomenclature used throughout to describe variants. The 6-6 variant contains the following codons at variant positions: GCG encodes alanine at amino acid position 227, GGT encodes glycine at amino acid position 287, ATG encodes methionine at amino acid position 332, and TGG encodes tryptophane at amino acid position 328.

Molecule | cytotoxicity relative to CPT-11 [1] | Km [2] [µM] | level of carboxylesterase activity relative to F227A [3] | conversion of CPT-11 ([4]; HPLC assay) | CPT-11 conversion to SN-38 (SN-38 formation by HPLC), in words ([4]; 20 mM CPT-11, 72 hours, 37° C., versus mock / wild-type) | CPT-11 mediated cytotoxicity in SW48 colon carcinoma cells [5]
CCc1c2c(nc3ccc(O)cc13)-c1cc3c(c(=O)n1C2)COC(=O)[C@]3(O)CC [SN38, 7-ethyl-10-hydroxycamptothecin] | greater than 1000 fold | – | – | – | – | –
B1 | – | 40 | approximately 50% | less than 1% | did not show detectable levels of SN-38 | significantly enhanced
